Tests used:
THP-1 cells = experiment: Cholesterol efflux from cholesterol-laden human THP-1 cells; assay type: cell-based; conditions: liposomal formulations; cholesterol-laden THP-1 cells differentiated with phorbol myristate acetate
Method: These monocytes were differentiated into macrophages with phorbol myristate acetate (100 nM). In these experiments, cholesterol-laden human THP-1 cells were exposed to liposomal formulations comprising a peptide corresponding to amino acids 1-20 of murine SAA2.1 (SEQ ID NO:1), a peptide corresponding to amino acids 74-103 of murine SAA2.1 (SEQ ID NO:4), a peptide corresponding to amino acids 1-20 of murine SAA1.1 plus an arginine at the N-terminus (SEQ ID NO:7), or a peptide corresponding to amino acids 1-20 of murine SAA2.1 (SEQ ID NO:1) and a peptide corresponding to amino acids 74-103 (SEQ ID NO:4) of murine SAA2.1. Results from these experiments are depicted in FIG. 4. […] Studies were carried out to determine whether murine SAA2.1 increases cholesterol export from a human derived monocytic cell line, THP-1 (obtained from American Type Culture Collection, Manassas, Va.; ATCC#TIB-202). Human monocytes were cultured in T-75 flasks with 30 ml RPMI 1640 medium containing 2 mM L-glutamine, 4.5 g/L glucose, 10 mM HEPES, 1.0 mM […] and supplemented with 0.05 mM 2-mercaptoethanol and 10% fetal bovine serum. Subsequently, five million cells were placed in each well of a 6-well tissue culture plate. The monocytes were differentiated into macrophages by treatment with phorbol myristate acetate (100 nM). THP-1 macrophages were enriched with cholesterol by incubating with red blood cells membrane fragments (175 μg as cholesterol) that had been previously labelled with 0.5 μCi/mL[^3H]-cholesterol at 37° C. for 6 hours in 0.2% bovine serum albumin, followed by an overnight equilibration period. Cells were washed four times with PBS/BSA prior to efflux studies. Cells were then incubated at 37° C. with 2 mL RPMI-BSA containing 5% LPDS and 50 μg/mL of either native HDL, SAA-HDL, liposomes containing 2 μmoles of apoA-I, SAA1.1 or 2.1, or liposomes containing 0.5 μmoles synthetic peptides corresponding to amino acid residues 1-20 (SEQ ID NO:1), 21-50 (SEQ ID NO:2), 51-80 (SEQ ID NO:3) or 74-103 (SEQ ID NO:4) of murine SAA2.1. The efflux media were collected at 0, 1, 2, 4, 8, 16 and 24 hours, centrifuged to remove cell debris, and then used to measure the exported counts. […] A portion of the cells was lysed in 0.1N NaOH to estimate both the remaining radioactivity and the cellular protein content. Cellular lipids were extracted from the remaining portion of the cells and analyzed by thin-layer chromatography as described by Mendez et al. (J. Clin. Invest. 1994 94:1698-1705) and Oram et al. (Arterioscler. Thromb. 1991 11:403-414). The radioactivity in appropriate spots was measured to determine total cellular cholesterol counts. Efflux of radioactive label to the medium was calculated as the percentage of total counts (cell+medium counts) in each well.

[1] = test system: cholesterol ester hydrolase; experiment: Rate of hydrolysis of cholesteryl ester in cholesterol-laden J774 cells (cholesterol ester hydrolase activity); assay type: cell-based, murine
Method: Identification of the domain of SAA2.1 that is responsible for enhancing cholesterol ester hydrolase activity was performed in J774 cells preloaded with radio-labeled cholesteryl esters. These experiments were performed in the presence of Sandoz 58-035, an inhibitor of acyl CoA:cholesterol acyl transferase activity, to prevent re-esterification of liberated cholesterol and [^14C]oleate. Incubations proceeded for times ranging from 0 to 24 hours, following which the remaining quantities of [^14C]-labeled cholesteryl oleate in cells were measured to determine the rate of hydrolysis of cholesteryl ester. […] However, an equivalent amount of liposomes containing the synthetic peptide corresponding to amino acid residues 74-103 of murine SAA2.1 caused a 3-fold increase in cholesterol ester hydrolase activity in these cholesterol-laden murine cells. Newly confluent J774 cells were labeled with [^14C]-oleate during cholesterol loading with red blood cell membranes as described above. Cells were then incubated for up to 24 hours with 2 mL of DMEM containing 5% LPDS and 50 μg/mL of either native HDL, SAA-HDL, liposomes containing 2 μmoles of apoA-1, SAA1.1 or 2.1, or liposomes containing 0.5:mol synthetic peptides corresponding to amino acid residues 1-20 (SEQ ID NO:1), 21-50 (SEQ ID NO:2), 51-80 (SEQ ID NO:3) and 74-103 (SEQ ID NO:4) of murine SAA2.1. To determine the rate of cholesteryl ester hydrolysis, 2 μg/mL of the acyl CoA:cholesterol acyl transferase inhibitor Sandoz 58-035 (propanimide, 3-(decyldimethylsilyl)-N-[2-(4-methylphenyl)-1-phenylethyl]-(9Cl) was added during incubation with lipoproteins or liposomes to prevent […] and free cholesterol. To examine whether or not the rate of cholesteryl ester hydrolysis involved the lysosomal cholesteryl ester hydrolase, the cells were cultured in the presence of 50 μg/mL of either native HDL and chloroquine or SAA-HDL and chloroquine (100:M). Chloroquine is an agent that neutralizes the lysosomal proton gradient. At various time points, cellular lipids were extracted and analyzed for cholesteryl ester radioactivity as described above.

[2] = target: T1, acyl CoA:cholesterol acyl transferase (Mus musculus, UniProt Q61263); conditions: intact murine macrophages and post-nuclear homogenates; Ely et al. 2001; cited from earlier work
T1 construct: The relative activity of acyl CoA:cholesterol acyl transferase was determined in cholesterol-laden cells; host or cells: J774 mouse macrophages, cholesterol-loaded
T1 sequence (Q61263 1-540): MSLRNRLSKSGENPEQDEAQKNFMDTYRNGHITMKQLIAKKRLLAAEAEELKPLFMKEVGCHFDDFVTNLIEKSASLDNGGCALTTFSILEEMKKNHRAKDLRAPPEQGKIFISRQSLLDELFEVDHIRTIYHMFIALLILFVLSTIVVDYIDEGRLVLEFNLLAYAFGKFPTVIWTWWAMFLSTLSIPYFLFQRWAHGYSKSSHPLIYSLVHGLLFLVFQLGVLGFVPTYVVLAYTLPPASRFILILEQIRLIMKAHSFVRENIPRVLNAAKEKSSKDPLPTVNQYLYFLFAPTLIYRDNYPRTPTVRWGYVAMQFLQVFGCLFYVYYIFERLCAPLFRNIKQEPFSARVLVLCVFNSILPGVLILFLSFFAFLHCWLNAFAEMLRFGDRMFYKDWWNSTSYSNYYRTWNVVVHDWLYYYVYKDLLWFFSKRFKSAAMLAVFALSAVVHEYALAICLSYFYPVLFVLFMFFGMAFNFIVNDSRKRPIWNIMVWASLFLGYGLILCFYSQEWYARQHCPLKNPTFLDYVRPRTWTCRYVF

[3] = target: T1, acyl CoA:cholesterol acyl transferase; experiment: Incorporation of [14C]oleate into cholesteryl ester in cholesterol-laden macrophages (ACAT activity); assay type: cell-based, murine; conditions: lipoproteins or protein liposomes; tissue culture
Method: The incorporation of [^14C]oleate into cholesteryl ester was used as a measure of acyl CoA:cholesterol acyl transferase activity to identify compositions inhibiting the enzyme activity. The relative acyl CoA:cholesterol acyl transferase activity was determined in cholesterol-laden murine cells that had been cultured in medium in the absence of liposomes or in the presence of protein-free liposomes or liposomes containing 0.5 μM synthetic peptides corresponding to amino acids 1-20, 21-50, 51-80 and 74-103 of murine SAA2.1.
To load the cells with cholesterol, nearly confluent mono-layers were washed 3 times with phosphate buffered saline containing 2 mg/mL fatty acid-free bovine serum albumin (PBS-BSA) and incubated for 5 hours in DMEM supplemented with 5% lipoprotein-depleted serum (LPDS) (d>1.25 g/mL) and 175 μg of red blood cell membrane cholesterol. For the purpose of pool equilibration of added cholesterol, cell cultures were rinsed twice with PBS-BSA and incubated overnight in DMEM containing 5% LPDS. The relative activity of acyl CoA:cholesterol acyl transferase was determined in cholesterol-laden cells that had been cultured in medium containing no liposomes, protein-free liposomes or liposomes containing 0.5:M synthetic peptides corresponding to amino acid residues 1-20 (SEQ ID NO:1), 21-50 (SEQ ID NO:2), 51-80 (SEQ ID NO:3) or 74-103 (SEQ ID NO:4) of murine SAA2.1, respectively. Following 3 hours incubation with the above media, [^14C]-oleate was added and the cells were incubated for another 3 hour period (Mendez et al. J. Clin. Invest. 1994 94:1698-1705; Oram et al. Arterioscler. Thromb. 1991 11:403-414). Cells were chilled on ice and washed twice with PBS-BSA and twice with PBS. After addition of [^3H]-cholesteryl oleate (6000 dpm/well) as an internal standard, the lipids were extracted from the labeled cells and analyzed by thin-layer chromatography as described by Mendez et al. (J. Clin. Invest. 1994 94:1698-1705) and Oram et al. (Arterioscler. Thromb. 1991 11:403-414). The radioactivity in appropriate spots was measured to determine the incorporation of radioactivity into cholesteryl esters as a measure of acyl CoA:cholesterol acyl transferase activity.

J774 macrophages = experiment: Cholesterol efflux from cholesterol-laden J774 macrophages to apolipoprotein liposomes with 8-bromo-cAMP or methyl-β-cyclodextrin; assay type: cell-based, mouse; conditions: 8-bromo-cAMP 0.3 mM, 12 hours; Sandoz 58-035 present
From the text: The export process of cholesterol is coupled to the ATP binding cassette transporter (ABCA1) pathway. Lipid efflux to apolipoproteins has been shown previously to be stimulated by treatment of murine macrophages with cAMP analogues (Lin et al. 2002 Biochem Biophys Res. Commun. 290:663-669; Oram et al. 2000 J. Biol. Chem. 275:34508-34511). Also, the expression of ABCA1 is induced by cAMP treatment (Lin et al. 2002 Biochem Biophys Res. Commun. 290:663-669; Oram et al. 2000 J. Biol. Chem. 275:34508-34511). The inventors herein examined the effect of 8-bromo-cAMP (0.3 mM) on cholesterol efflux by liposomes containing various apolipoproteins when incubated with cholesterol-laden J774 macrophages. Such cells were pre-labeled with [^3H]-cholesterol in the presence of Sandoz 58-035, an ACAT inhibitor, to ensure that all of the radiolabeled cholesterol released from the cells was derived from the un-esterified cholesterol pool, and the cells were treated for 12 hours with 8-bromo-cAMP. This was followed by incubation with various acceptors. The fractional release of cellular labeled cholesterol was determined as a function of time.
To investigate whether an apolipoprotein free cholesterol acceptor such as cyclodextrin has the ability to catalyze the removal of cholesterol from macrophages, cholesterol-loaded and labeled J774 cells were incubated with liposomes and methyl-β-cyclodextrin (0.1 mM) (CD).
To examine whether cholesterol export from J774 cells to medium containing liposomes containing 2 μM murine apoA-1, SAA1.1 or SAA2.1 is a cAMP-dependent process, the radio-labeled cholesterol-laden cells were incubated overnight with 8-Br-cAMP (0.3 mM), prior to the addition of liposomes containing 2 μM murine apoA-1, SAA1.1 or SAA2.1 to the culture medium. Cholesterol efflux to the medium was then determined at the indicated time points as described above. Efflux of radioactive label to the medium was calculated as a percentage of total counts in each well.

[4] = target: T1, acyl CoA:cholesterol acyl transferase; experiment: ACAT activity in macrophage post-nuclear homogenates; assay type: biochemical, murine; conditions: macrophage post-nuclear homogenates as enzyme source
From the text: The in vitro effects of acute phase-HDL (AP-HDL;HDL-SAA) on acyl CoA:cholesterol acyl transferase and cholesterol ester hydrolase activities and on cellular cholesterol export were studied by the inventors using purified enzymes, cell homogenates, and whole cells. […] In contrast, murine SAA1.1 and apoA-1 had no effect. […] Using macrophages preloaded with radio-labeled cholesterol and injected intravenously into either inflamed or un-inflamed mice, it was shown that the inflamed mice, which have high SAA2.1 levels, effluxed cholesterol more rapidly and to a greater extent (6-fold greater) than their un-inflamed counterparts.

Molecule: RGFFSFIGEAFQGAGDMWRAY [SEQ ID NO:7, residues 1-20 of murine SAA1.1 plus an arginine at the N-terminus]
- cholesterol efflux, time course (FIG. 4) (THP-1 cells): effectively increased cholesterol efflux

Molecule: GFFSFVHEAFQGAGDM [murine SAA2.11-16, 16-mer released by cyanogen bromide cleavage of murine SAA2.1, residues 1-16, reference compound]
- effect on cholesterol ester hydrolase activity ([1]; fragment released by cyanogen bromide cleavage): produced no effect
- macrophage ACAT activity [2]: profound effect inhibiting ACAT activity in a dose-dependent manner

Molecule: GFFSFIGEAFQGAGDMWRAY [SEQ ID NO:5, synthetic peptide, residues 1-20 of murine SAA1.1]
- cholesterol efflux, time course (FIG. 4) (THP-1 cells): inactive

B1: apoA-1: apolipoprotein isolated from acute phase murine plasma, reconstituted in liposomes (protein, UniProt Q00623 25-264, looked up)
Apolipoprotein A-I: DEPQSQWDKVKDFANVYVDAVKDSGRDYVSQFESSSLGQQLNLNLLENWDTLGSTVSQLQERLGPLTRDFWDNLEKETDWVRQEMNKDLEEVKQKVQPYLDEFQKKWKEDVELYRQKVAPLGAELQESARQKLQELQGRLSPVAEEFRDRMRTHVDSLRTQLAPHSEQMRESLAQRLAELKSNPTLNEYHTRAKTHLKTLGEKARPALEDLRHSLMPMLETLKTQVQSVIDKASETLTAQ
modifications: reconstituted in liposomes
- cholesterol ester hydrolase activity in intact cholesterol-laden macrophages ([1]; lipoproteins or protein liposomes, tissue culture): no effect on enzyme activities
- acyl CoA:cholesterol acyl transferase activity in intact cholesterol-laden macrophages [3]: no effect on enzyme activities
- increase in the initial rate of cholesterol efflux to liposomes after cAMP pre-treatment versus untreated cells (J774 macrophages): 32.7%
- acyl CoA:cholesterol acyl transferase activity [4]: had no effect

Reference: patent US8703698B2, “Compositions and methods for treating atherosclerosis” (The University of Chicago, priority 2003, dated 2014)
